Data as given in patent US20240309073A1 (SERUM INSTITUTE OF INDIA PRIVATE, published 2024).

How the values were obtained:
Assay in all cases: cell-based or functional assay
[1] = molecular target: T1, Dengue virus serotype DV4 (Dengue virus serotype 4 (DV4), UniProt P09866 280-774)
[2] = molecular target: T2, Dengue virus serotype DV2 (Dengue virus serotype 2 (DV2), UniProt P29990 281-775)
[3] = molecular target: T3, Dengue virus serotype DV3 (Dengue virus serotype 3 (DV3), UniProt Q6YMS4 281-773)
[4] = molecular target: T1, Dengue virus serotype DV4; remark: listed apart in the source
[5] = molecular target: T2, Dengue virus serotype DV2; remark: listed apart in the source
[6] = molecular target: T3, Dengue virus serotype DV3; remark: listed apart in the source
[7] = molecular target: T2, Dengue virus serotype DV2; remark: listed apart in the source

T1 sequence (P09866 280-774 limits assumed): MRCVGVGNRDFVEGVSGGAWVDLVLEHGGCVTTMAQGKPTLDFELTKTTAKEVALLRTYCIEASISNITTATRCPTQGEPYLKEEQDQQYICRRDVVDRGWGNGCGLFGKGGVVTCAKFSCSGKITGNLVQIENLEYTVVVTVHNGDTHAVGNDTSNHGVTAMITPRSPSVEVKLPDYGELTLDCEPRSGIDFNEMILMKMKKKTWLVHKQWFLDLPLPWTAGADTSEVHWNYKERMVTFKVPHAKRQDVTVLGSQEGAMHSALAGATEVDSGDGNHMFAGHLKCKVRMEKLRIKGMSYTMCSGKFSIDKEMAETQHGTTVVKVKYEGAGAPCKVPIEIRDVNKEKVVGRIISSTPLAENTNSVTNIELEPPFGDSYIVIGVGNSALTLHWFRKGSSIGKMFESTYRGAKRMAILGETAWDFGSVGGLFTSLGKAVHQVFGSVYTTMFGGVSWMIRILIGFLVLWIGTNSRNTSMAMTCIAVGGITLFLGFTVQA

B1: Dengue (VIS513) Monoclonal antibody (antibody, human IgG1, kappa, V domains shown)
VH: QVQLVQSGAEVKKPGASVKVSCKAGFNIKDVYMSWVRQAPEQGLEWMGRIDPENGDTKYDPKLQGRVTMTADTSTNTAYMELRSLRSDDTAVYYCARGWEGFAYWGQGTLVTVSS
VL: DIVMTQSPASLAVSLGERATISCRASENVDKYGNSFMHWYQQKPGQPPKLLIYRASELQWGVPDRFSGSGSGTDFTLTISSLQAEDVAVYYCQRSNEVPWTFGQGTKLEIKR
[1]
  EC50 (ng/ml) by PRNT assay; Batch 1, stored at 2-8° C., 0 day: 30.3 ng/mL
  EC50 (ng/ml) by PRNT assay; Batch 1, stored at 2-8° C., 3 months: 50.8 ng/mL
  EC50 (ng/ml) by PRNT assay; Batch 1, stored at 2-8° C., 6 months: 24 ng/mL
  EC50 (ng/ml) by PRNT assay; Batch 1, stored at 2-8° C., 9 months: 23.4 ng/mL
  EC50 (ng/ml) by PRNT assay; Batch 2, stored at 2-8° C., 0 day: 22.5 ng/mL
  EC50 (ng/ml) by PRNT assay; Batch 2, stored at 2-8° C., 3 months: 22.4 ng/mL
  EC50 (ng/ml) by PRNT assay; Batch 2, stored at 2-8° C., 6 months: 16.6 ng/mL
  EC50 (ng/ml) by PRNT assay; Batch 2, stored at 2-8° C., 9 months: 19.6 ng/mL
[2]
  EC50 (ng/ml) by PRNT assay; Batch 1, stored at 2-8° C., 0 day: 5.9 ng/mL
  EC50 (ng/ml) by PRNT assay; Batch 1, stored at 2-8° C., 3 months: 8.03 ng/mL
  EC50 (ng/ml) by PRNT assay; Batch 1, stored at 2-8° C., 6 months: 3.58 ng/mL
  EC50 (ng/ml) by PRNT assay; Batch 1, stored at 2-8° C., 9 months: 3.31 ng/mL
  EC50 (ng/ml) by PRNT assay; Batch 2, stored at 2-8° C., 0 day: 3.26 ng/mL
  EC50 (ng/ml) by PRNT assay; Batch 2, stored at 2-8° C., 3 months: 5.69 ng/mL
  EC50 (ng/ml) by PRNT assay; Batch 2, stored at 2-8° C., 6 months: 4.15 ng/mL
  EC50 (ng/ml) by PRNT assay; Batch 2, stored at 2-8° C., 9 months: 2.87 ng/mL
[3]
  EC50 (ng/ml) by PRNT assay; Batch 1, stored at 2-8° C., 0 day: 14.4 ng/mL
  EC50 (ng/ml) by PRNT assay; Batch 1, stored at 2-8° C., 3 months: 14.7 ng/mL
  EC50 (ng/ml) by PRNT assay; Batch 1, stored at 2-8° C., 6 months: 5.58 ng/mL
  EC50 (ng/ml) by PRNT assay; Batch 1, stored at 2-8° C., 9 months: 4.57 ng/mL
  EC50 (ng/ml) by PRNT assay; Batch 2, stored at 2-8° C., 0 day: 13.2 ng/mL
  EC50 (ng/ml) by PRNT assay; Batch 2, stored at 2-8° C., 6 months: 6.53 ng/mL
  EC50 (ng/ml) by PRNT assay; Batch 2, stored at 2-8° C., 9 months: 7.05 ng/mL
[4]
  EC50 (ng/ml) by PRNT assay; Batch 1, stored at 25° C., 0 day: 30.3 ng/mL
  EC50 (ng/ml) by PRNT assay; Batch 1, stored at 25° C., 30 days: 35.3 ng/mL
  EC50 (ng/ml) by PRNT assay; Batch 2, stored at 25° C., 0 day: 22.5 ng/mL
  EC50 (ng/ml) by PRNT assay; Batch 2, stored at 25° C., 30 days: 30.7 ng/mL
[5]
  EC50 (ng/ml) by PRNT assay; Batch 1, stored at 25° C., 0 day: 5.9 ng/mL
  EC50 (ng/ml) by PRNT assay; Batch 1, stored at 25° C., 30 days: 5.6 ng/mL
  EC50 (ng/ml) by PRNT assay; Batch 2, stored at 25° C., 0 day: 3.26 ng/mL
  EC50 (ng/ml) by PRNT assay; Batch 2, stored at 25° C., 30 days: 5.51 ng/mL
[6]
  EC50 (ng/ml) by PRNT assay; Batch 1, stored at 25° C., 0 day: 14.4 ng/mL
  EC50 (ng/ml) by PRNT assay; Batch 1, stored at 25° C., 30 days: 9.63 ng/mL
  EC50 (ng/ml) by PRNT assay; Batch 2, stored at 25° C., 0 day: 13.2 ng/mL
  EC50 (ng/ml) by PRNT assay; Batch 2, stored at 25° C., 30 days: 9.25 ng/mL
[7]
  EC50 (ng/ml) by PRNT assay; Batch 1, 40° C. study, Control, 0 day: 6.66 ng/mL
  EC50 (ng/ml) by PRNT assay; Batch 1, 40° C. study, Control, 7 days: 6.37 ng/mL
  EC50 (ng/ml) by PRNT assay; Batch 1, 40° C. study, Control, 14 days: 6.18 ng/mL
  EC50 (ng/ml) by PRNT assay; Batch 1, stored at 40° C., Test, 7 days: 26.9 ng/mL
  EC50 (ng/ml) by PRNT assay; Batch 1, stored at 40° C., Test, 14 days: 36.1 ng/mL
